{"source": "patent US6849610", "tested_on": "HCMV intact particles AD169 (Human cytomegalovirus AD169)", "assay": "cell_activity", "settings": "2'-NH2 on all pyrimidines, plaque formation, 1e5 PFU/ml"}
{"sequence": "GGGAGACAAGAAUAAACGGUCAAUUACGGUCACCUUACCCCUGGGUGUGCUCUUCCCGGUGGGUUCGACAUGAGGG [L13]", "values": [{"measurement": "IC50", "setting": "viral yield IC50 100±20 nM", "result": 125, "unit": "nM"}]}
{"sequence": "GGGAGACAAGAAUAAACGGUCAAUGUGGGUCGUGUUAAGCUUCGGGCUUCGCGCAAAUCUGGGUUCGACAUGAGGG [L66]", "values": [{"measurement": "IC50", "setting": "viral yield IC50 18±4 nM", "result": 15, "unit": "nM"}]}
{"sequence": "GGGAGACAAGAAUAAACGGUCAACUCGAGCCACCCCAUAACCCUCAAUACUCCAGGGAUUGGGUUCGACAUGAGGG [L19]", "values": [{"measurement": "IC50", "setting": "viral yield IC50 35±7 nM", "result": 35, "unit": "nM"}]}
